Laboratory results from patent publication US20230151104A1 (REMD BIOTHERAPEUTICS, published 2023).
Values joined by “and” are separate entries in the source; they are usually repeats but may differ in a detail not shown here. Identical values can stand only once.

How the values were obtained:
[1] = target: T1, human CXCR4 (hCXCR4), on CXCR4-positive cell line "CXCR4 E4" (human, UniProt P61073-2 2-356); test: FACS on CXCR4 E4 cells; serial dilution of Expi293F supernatant; anti-human IgG Alexa Fluor 647
T1 construct: FACS target: 'Positive cells lines (CXCR4 E4)'; also called chemokine receptor 4; HuCXCR4
T1 sequence (P61073 other isoform, or with tags, fused parts or gaps): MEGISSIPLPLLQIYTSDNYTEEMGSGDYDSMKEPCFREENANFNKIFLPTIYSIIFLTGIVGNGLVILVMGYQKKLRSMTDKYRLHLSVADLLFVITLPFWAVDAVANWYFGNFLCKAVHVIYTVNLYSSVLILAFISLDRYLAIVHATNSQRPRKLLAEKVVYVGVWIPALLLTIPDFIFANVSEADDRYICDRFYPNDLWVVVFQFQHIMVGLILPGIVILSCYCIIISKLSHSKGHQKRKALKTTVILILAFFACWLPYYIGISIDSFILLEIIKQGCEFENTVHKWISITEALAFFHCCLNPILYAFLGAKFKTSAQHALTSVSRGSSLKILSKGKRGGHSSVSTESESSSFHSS
Protocol: The DNA sequences encoding the chimeric antibody and humanized IgG heavy and light chains were synthesized and inserted into pCDNA3.4 vector to construct the expression plasmids of full-length IgGs. 18 humanized Abs were expressed in Expi293F cell culture, and then the cells were spun down. For affinity ranking, the supernatants were assayed by FACS against cell lines for the assessment of binding activity. Positive cells lines (CXCR4 E4) were cultured following the protocol and harvested by centrifugation. About 1×10⁵cells per well were washed with 1*PBS and incubated in a serial dilution of antibodies for 30 minutes at 4° C. After washing with PBS, secondary antibody [1 μg/ml Alexa Fluor® 647 AffiniPure Goat Anti-Human IgG (H+L)] was added to the cells and incubated in PBS for 30 minutes at 4° C. After washing with PBS, cells were analyzed for binding by using FACS Calibur (BD Bioscience, San Jose, Calif.) and Flowjo software. The antibodies were ranked by EC50.

[2] = target: T1, human CXCR4 (hCXCR4), on CXCR4-positive …; test: FACS binding confirmation with purified IgG on CXCR4-expressing cells

B1: murine-human chimeric IgG1 derived from mAb 201D10A12C1 (A15) (antibody, V domains shown)
VH: EVQLQQSGPVLVRPGASVKMSCKASGYAFTDFHLNWVKQSHGKSLEWIGVINPYNGGTNYNQKFKDKATLTVDKSSSTAYMELNRLTSEDSAVYYCARYYASRYGYAMDYWGQGTSVTVSS
VL: DIVMTQAAPSVPVTPGESVSISCRSSKSLLHSNGNTYLYWFLQRPGQSPQLLIYRMSNLASGVPDRFSGSGSGTAFTLRISRVEAEDVGIYYCMQHVEYPLTFGAGTKLELKR
notes: also called Chimeric (VH/VL); 4 Chimeric (VH/VL)
How did the EC50 [1] turn out when B1 was run?
Its EC50 is 1.56 µg/mL and 10.4 nM.

And the EC50 [2]?
The EC50 was 1.8 µg/mL.

B2: humanized IgG 2 (VH1/VL2) (antibody)
heavy: not shown
light: DIVMTQSPLSLPVTPGEPVSISCRSSKSLLHSNGNTYLYWFLQKPGQSPQLLIYRMSNLASGVPDRFSGSGSGTDFTLKISRVEAEDVGVYYCMQHVEYPLTFGGGTKLEIKRTVAAPSVFIFPPSDEQLKSGTASVVCLLNNFYPREAKVQWKVDNALQSGNSQESVTEQDSKDSTYSLSSTLTLSKADYEKHKVYACEVTHQGLSSPVTKSFNRGEC
notes: Full-length humanized IgG; also called H1/L2
For B2, which EC50 [1] is on record?
The EC50 was 2.19 µg/mL and 14.6 nM.

What about the EC50 [2] of the same binder?
Its EC50 is 1.72 µg/mL.

B3: humanized IgG 1 (VH1/VL1) (antibody, V domains shown)
VH: QVQLVQSGAEVKKPGASVKVSCKASGYAFTDFHLNWVRQAPGQGLEWMGVINPYNGGTNYNQKFKDRVTMTRDTSISTAYMELSRLRSDDTAVYYCARYYASRYGYAMDYWGQGTLVTVSS
VL: DIVMTQSPLSLPVTPGEPASISCRSSKSLLHSNGNTYLYWYLQKPGQSPQLLIYRMSNLASGVPDRFSGSGSGTDFTLKISRVEAEDVGVYYCMQHVEYPLTFGGGTKLEIKR
notes: Full-length humanized IgG; also called H1/L1
With B3 as the binder, how does the EC50 [1] read?
The EC50 was 1.72 µg/mL and 11.5 nM.

And the EC50 [2]?
Its EC50 is 1.6 µg/mL.

B4: humanized IgG 3 (VH1/VL3) (antibody)
heavy: not shown
light: DIVMTQSALSLPVTPGEPVSISCRSSKSLLHSNGNTYLYWFLQKPGQSPQLLIYRMSNLASGVPDRFSGSGSGTDFTLKISRVEAEDVGVYYCMQHVEYPLTFGGGTKLEIKRTVAAPSVFIFPPSDEQLKSGTASVVCLLNNFYPREAKVQWKVDNALQSGNSQESVTEQDSKDSTYSLSSTLTLSKADYEKHKVYACEVTHQGLSSPVTKSFNRGEC
notes: Full-length humanized IgG; also called H1/L3
How did the EC50 [1] turn out when B4 was run?
Its EC50 is 2.27 µg/mL and 15.2 nM.

What about the EC50 [2] of the same binder?
Its EC50 is 2.35 µg/mL.

B5: humanized antibody VH4/VL2 (antibody, V domains shown)
VH: QVQLVQSGAEVKKPGASVKMSCKASGYAFTDFHLNWVRQSHGQGLEWIGVINPYNGGTNYNQKFKDRVTLTVDTSISTAYMELSRLRSDDTAVYYCARYYASRYGYAMDYWGQGTLVTVSS
VL: DIVMTQSPLSLPVTPGEPVSISCRSSKSLLHSNGNTYLYWFLQKPGQSPQLLIYRMSNLASGVPDRFSGSGSGTDFTLKISRVEAEDVGVYYCMQHVEYPLTFGGGTKLEIK
notes: Expressed as full-length IgG in Expi293F cells and tested as supernatant
Which EC50 [1] does the source give for B5 here?
The EC50 was 1.99 µg/mL and 13.2 nM.

B6: humanized antibody VH4/VL3 (antibody, V domains shown)
VH: QVQLVQSGAEVKKPGASVKMSCKASGYAFTDFHLNWVRQSHGQGLEWIGVINPYNGGTNYNQKFKDRVTLTVDTSISTAYMELSRLRSDDTAVYYCARYYASRYGYAMDYWGQGTLVTVSS
VL: DIVMTQSALSLPVTPGEPVSISCRSSKSLLHSNGNTYLYWFLQKPGQSPQLLIYRMSNLASGVPDRFSGSGSGTDFTLKISRVEAEDVGVYYCMQHVEYPLTFGGGTKLEIK
notes: as for B5
B6 was tested. Which EC50 [1] did it give?
The EC50 was 1.97 µg/mL and 13.2 nM.

B7: humanized antibody VH6/VL2 (antibody, V domains shown)
VH: QVQLVQSGAEVKKPGASVKMSCKASGYAFTDFHLNWVKQSHGQGLEWIGVINPYNGGTNYNQKFKDRATLTVDTSISTAYMELSRLRSDDSAVYYCARYYASRYGYAMDYWGQGTLVTVSS
VL: DIVMTQSPLSLPVTPGEPVSISCRSSKSLLHSNGNTYLYWFLQKPGQSPQLLIYRMSNLASGVPDRFSGSGSGTDFTLKISRVEAEDVGVYYCMQHVEYPLTFGGGTKLEIK
notes: as for B5
Which EC50 [1] does the source give for B7 here?
Its EC50 is 1.94 µg/mL and 13 nM.

B8: humanized antibody VH4/VL1 (antibody, V domains shown)
VH: QVQLVQSGAEVKKPGASVKMSCKASGYAFTDFHLNWVRQSHGQGLEWIGVINPYNGGTNYNQKFKDRVTLTVDTSISTAYMELSRLRSDDTAVYYCARYYASRYGYAMDYWGQGTLVTVSS
VL: DIVMTQSPLSLPVTPGEPASISCRSSKSLLHSNGNTYLYWYLQKPGQSPQLLIYRMSNLASGVPDRFSGSGSGTDFTLKISRVEAEDVGVYYCMQHVEYPLTFGGGTKLEIK
notes: as for B5
With B8 as the binder, how does the EC50 [1] read?
Its EC50 is 2.39 µg/mL and 16 nM.

B9: humanized antibody VH3/VL1 (antibody, V domains shown)
VH: QVQLVQSGAEVKKPGASVKVSCKASGYAFTDFHLNWVRQSHGQGLEWIGVINPYNGGTNYNQKFKDRVTLTVDTSISTAYMELSRLRSDDTAVYYCARYYASRYGYAMDYWGQGTLVTVSS
VL: DIVMTQSPLSLPVTPGEPASISCRSSKSLLHSNGNTYLYWYLQKPGQSPQLLIYRMSNLASGVPDRFSGSGSGTDFTLKISRVEAEDVGVYYCMQHVEYPLTFGGGTKLEIK
notes: as for B5
How did the EC50 [1] turn out when B9 was run?
Its EC50 is 4.18 µg/mL and 27.9 nM.

B10: humanized antibody VH5/VL2 (antibody, V domains shown)
VH: QVQLVQSGAEVKKPGASVKMSCKASGYAFTDFHLNWVKQSHGQGLEWIGVINPYNGGTNYNQKFKDRVTLTVDTSISTAYMELSRLRSDDTAVYYCARYYASRYGYAMDYWGQGTLVTVSS
VL: DIVMTQSPLSLPVTPGEPVSISCRSSKSLLHSNGNTYLYWFLQKPGQSPQLLIYRMSNLASGVPDRFSGSGSGTDFTLKISRVEAEDVGVYYCMQHVEYPLTFGGGTKLEIK
notes: as for B5
Which EC50 [1] does the source give for B10 here?
Its EC50 is 1.61 µg/mL and 10.7 nM.

B11: humanized antibody VH2/VL1 (antibody, V domains shown)
VH: QVQLVQSGAEVKKPGASVKVSCKASGYAFTDFHLNWVRQSPGQGLEWIGVINPYNGGTNYNQKFKDRVTLTVDTSISTAYMELSRLRSDDTAVYYCARYYASRYGYAMDYWGQGTLVTVSS
VL: DIVMTQSPLSLPVTPGEPASISCRSSKSLLHSNGNTYLYWYLQKPGQSPQLLIYRMSNLASGVPDRFSGSGSGTDFTLKISRVEAEDVGVYYCMQHVEYPLTFGGGTKLEIK
notes: as for B5
B11 was tested. Which EC50 [1] did it give?
The EC50 was 5.37 µg/mL and 35.8 nM.

B12: humanized antibody VH6/VL3 (antibody, V domains shown)
VH: QVQLVQSGAEVKKPGASVKMSCKASGYAFTDFHLNWVKQSHGQGLEWIGVINPYNGGTNYNQKFKDRATLTVDTSISTAYMELSRLRSDDSAVYYCARYYASRYGYAMDYWGQGTLVTVSS
VL: DIVMTQSALSLPVTPGEPVSISCRSSKSLLHSNGNTYLYWFLQKPGQSPQLLIYRMSNLASGVPDRFSGSGSGTDFTLKISRVEAEDVGVYYCMQHVEYPLTFGGGTKLEIK
notes: as for B5
With B12 as the binder, how does the EC50 [1] read?
The EC50 was 2.86 µg/mL and 19.1 nM.

B13: humanized antibody VH6/VL1 (antibody, V domains shown)
VH: QVQLVQSGAEVKKPGASVKMSCKASGYAFTDFHLNWVKQSHGQGLEWIGVINPYNGGTNYNQKFKDRATLTVDTSISTAYMELSRLRSDDSAVYYCARYYASRYGYAMDYWGQGTLVTVSS
VL: DIVMTQSPLSLPVTPGEPASISCRSSKSLLHSNGNTYLYWYLQKPGQSPQLLIYRMSNLASGVPDRFSGSGSGTDFTLKISRVEAEDVGVYYCMQHVEYPLTFGGGTKLEIK
notes: as for B5
B13 was tested. Which EC50 [1] did it give?
The EC50 was 1.45 µg/mL and 9.65 nM.

B14: humanized antibody VH3/VL2 (antibody, V domains shown)
VH: QVQLVQSGAEVKKPGASVKVSCKASGYAFTDFHLNWVRQSHGQGLEWIGVINPYNGGTNYNQKFKDRVTLTVDTSISTAYMELSRLRSDDTAVYYCARYYASRYGYAMDYWGQGTLVTVSS
VL: DIVMTQSPLSLPVTPGEPVSISCRSSKSLLHSNGNTYLYWFLQKPGQSPQLLIYRMSNLASGVPDRFSGSGSGTDFTLKISRVEAEDVGVYYCMQHVEYPLTFGGGTKLEIK
notes: as for B5
B14 was tested. Which EC50 [1] did it give?
Its EC50 is 2.93 µg/mL and 19.5 nM.

B15: humanized antibody VH5/VL1 (antibody, V domains shown)
VH: QVQLVQSGAEVKKPGASVKMSCKASGYAFTDFHLNWVKQSHGQGLEWIGVINPYNGGTNYNQKFKDRVTLTVDTSISTAYMELSRLRSDDTAVYYCARYYASRYGYAMDYWGQGTLVTVSS
VL: DIVMTQSPLSLPVTPGEPASISCRSSKSLLHSNGNTYLYWYLQKPGQSPQLLIYRMSNLASGVPDRFSGSGSGTDFTLKISRVEAEDVGVYYCMQHVEYPLTFGGGTKLEIK
notes: as for B5
B15 was tested. Which EC50 [1] did it give?
Its EC50 is 0.375 µg/mL and 2.5 nM.

B16: humanized antibody VH3/VL3 (antibody, V domains shown)
VH: QVQLVQSGAEVKKPGASVKVSCKASGYAFTDFHLNWVRQSHGQGLEWIGVINPYNGGTNYNQKFKDRVTLTVDTSISTAYMELSRLRSDDTAVYYCARYYASRYGYAMDYWGQGTLVTVSS
VL: DIVMTQSALSLPVTPGEPVSISCRSSKSLLHSNGNTYLYWFLQKPGQSPQLLIYRMSNLASGVPDRFSGSGSGTDFTLKISRVEAEDVGVYYCMQHVEYPLTFGGGTKLEIK
notes: as for B5
With B16 as the binder, how does the EC50 [1] read?
The EC50 was 2.82 µg/mL and 18.8 nM.

B17: humanized antibody VH2/VL3 (antibody, V domains shown)
VH: QVQLVQSGAEVKKPGASVKVSCKASGYAFTDFHLNWVRQSPGQGLEWIGVINPYNGGTNYNQKFKDRVTLTVDTSISTAYMELSRLRSDDTAVYYCARYYASRYGYAMDYWGQGTLVTVSS
VL: DIVMTQSALSLPVTPGEPVSISCRSSKSLLHSNGNTYLYWFLQKPGQSPQLLIYRMSNLASGVPDRFSGSGSGTDFTLKISRVEAEDVGVYYCMQHVEYPLTFGGGTKLEIK
notes: as for B5
Which EC50 [1] does the source give for B17 here?
Its EC50 is 8.35 µg/mL and 55.7 nM.

B18: humanized antibody VH2/VL2 (antibody, V domains shown)
VH: QVQLVQSGAEVKKPGASVKVSCKASGYAFTDFHLNWVRQSPGQGLEWIGVINPYNGGTNYNQKFKDRVTLTVDTSISTAYMELSRLRSDDTAVYYCARYYASRYGYAMDYWGQGTLVTVSS
VL: DIVMTQSPLSLPVTPGEPVSISCRSSKSLLHSNGNTYLYWFLQKPGQSPQLLIYRMSNLASGVPDRFSGSGSGTDFTLKISRVEAEDVGVYYCMQHVEYPLTFGGGTKLEIK
notes: as for B5
B18 was tested. Which EC50 [1] did it give?
Its EC50 is 4.82 µg/mL and 32.1 nM.

B19: humanized antibody VH5/VL3 (antibody, V domains shown)
VH: QVQLVQSGAEVKKPGASVKMSCKASGYAFTDFHLNWVKQSHGQGLEWIGVINPYNGGTNYNQKFKDRVTLTVDTSISTAYMELSRLRSDDTAVYYCARYYASRYGYAMDYWGQGTLVTVSS
VL: DIVMTQSALSLPVTPGEPVSISCRSSKSLLHSNGNTYLYWFLQKPGQSPQLLIYRMSNLASGVPDRFSGSGSGTDFTLKISRVEAEDVGVYYCMQHVEYPLTFGGGTKLEIK
notes: as for B5
Which EC50 [1] does the source give for B19 here?
Its EC50 is 1.93 µg/mL and 12.8 nM.
